# B1: library; numbered along this chain (parent)
# chain: MRKPRAAVGSGHRKQAASQEGRQKHAKNNSQAKPSACDGLARQPEEVVLQASVSSYHLFRDVAEVTAFRGSLLSWYDQEKRDLPWRRRAEDEMDLDRRAYAVWVSEVMLQQTQVATVINYYTGWMQKWPTLQDLASASLEEVNQLWAGLGYYSRGRRLQEGARKVVEELGGHMPRTAETLQQLLPGVGRYTAGAIASIAFGQATGVVDGNVARVLCRVRAIGADPSSTLVSQQLWGLAQQLVDPARPGDFNQAAMELGATVCTPQRPLCSQCPVESLCRARQRVEQEQLLASGSLSGSPDVEECAPNTGQCHLCLPPSEPWDQTLGVVNFPRKASRKPPREESSATCVLEQPGALGAQILLVQRPNSGLLAGLWEFPSVTWEPSEQLQRKALLQELQRWAGPLPATHLRHLGEVVHTFSHIKLTYQVYGLALEGQTPVTTVPPGARWLTQEEFHTAAVSTAMKKVFRVYQGQQPGTCMGSKRSQVSSPCSRKKPRMGQQVLDNFFRSHISTDAHSLNSAAQ
# Variants of: B1
# Assay: 8OG:A repair function score (normalized; synonymous = 0, nonsense = -1) (normalized log-likelihood score); higher = more repair activity (WT-like)
# Settings: with 8OG:A DNA repair reporter (GFP) in HEK-293 MUTYH KO cells
# Summary of the method: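 After 72 h, viable mCherry+ cells were split into GFP+ (repair) and GFP− bins in three replicates per tile. These cells were MUTYH knockout HEK-293 cells holding lentiviral MUTYH cDNA NNN codon-scan libraries, kept in 10 pg/ml doxycycline and co-transfected with mCherry plus an 8OG:A GFP repair reporter. Sequencing of tile amplicons gave per-tile Rosace fitness scores, normalized into a repair function score anchored on synonymous and nonsense distributions. Synonymous medians were fixed at 0, nonsense at -1, and variants under 300 counts per million at the start were removed.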
# 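Further: cells sorted at 72 h after reporter transfection.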
row,Variant,8OG:A repair function score
1,W447T,-1.01
2,S54F,-0.0664
3,V500K,-0.0181
4,A101Q,-1.09
5,A203H,0.0237
6,E319T,0.123
7,W85G,-2.15
8,Q450W,-0.011
9,G475W,-0.0871
10,S510Y,-0.0344
11,D208S,-0.987
12,N503V,-0.0118
13,P306G,-0.0173
14,T191A,-0.325
15,A36G,-0.011
16,A51Q,0.214
17,L184Q,-0.899
18,L139A,-0.241
19,L289N,-0.057
20,R98V,-0.16
21,Y151H,-0.509
22,V348E,-0.925
23,G368N,-0.146
24,P320N,-0.0442

row,Variant,8OG:A repair function score
1,C262P,-1.18
2,R279T,-0.339
3,Q111K,-0.553
4,I118Q,-0.0947
5,F68T,-0.393
6,V500A,0.00946
7,S490D,-0.0147
8,Q240C,-1.01
9,V47H,0.0522
10,R246L,-0.719
11,V284P,-0.32
12,E287V,-0.04
13,N329E,-0.365
14,E64I,-0.193
15,Q351N,-0.125
16,H508P,0.00413
17,V348S,-1.25
18,F200G,-0.582
19,K492Q,0.0192
20,L237W,-0.397
21,T511E,-0.0321
22,N517Y,-0.0106
23,V48L,-0.0249
24,Q426E,-0.28

row,Variant,8OG:A repair function score
1,A147H,-0.241
2,P377M,-1.07
3,C272G,-1.24
4,Q435D,0.0234
5,C272S,-1.17
6,S296A,-0.0202
7,P267T,-0.202
8,A461N,-0.222
9,A162M,-0.887
10,L149N,-0.783
11,P129S,-0.231
12,M496S,-0.0675
13,R266N,-0.0656
14,R332M,-0.332
15,L315S,-0.102
16,G209I,-0.359
17,G222V,-0.622
18,L432R,-0.334
19,P273K,-0.708
20,E256P,-1.07
21,A254P,-0.979
22,V47I,0.0706
23,D243F,-0.786
24,Q435S,0.261

row,Variant,8OG:A repair function score
1,A291I,-0.0181
2,P338Q,-0.00645
3,S344A,0.0466
4,R506C,0.0164
5,L430G,-0.304
6,V465M,-0.396
7,L373Y,-0.225
8,G293P,-0.0254
9,A456Y,-0.476
10,H410P,-0.371
11,T122Q,0.0683
12,V348L,-0.351
13,D512K,-0.0591
14,A259S,-0.0739
15,W399N,-0.463
16,G39A,0.101
17,V327L,-0.388
18,R97T,-0.00706
19,T179N,-0.0369
20,S335R,-0.0718
21,P437E,0.0852
22,P174G,-0.814
23,Y151N,-1.33
24,V53A,0.00104

row,Variant,8OG:A repair function score
1,A162G,-0.456
2,Q358D,-0.342
3,A400E,-0.727
4,T176I,-0.31
5,A196L,-0.68
6,S298M,-0.0331
7,Y100G,-1.64
8,N210L,-0.937
9,E178A,0.0541
10,Q159E,-0.416
11,I195A,-0.996
12,L423H,0.0797
13,L290A,-0.0163
14,R279L,-0.146
15,V62F,0.00406
16,Q473K,-0.0281
17,R81H,-0.3
18,R81F,-1.5
19,S153N,-0.152
20,A212I,-0.333
21,K464C,-0.49
22,G188L,-0.95
23,K492G,-0.00555
24,D300S,-0.139

row,Variant,8OG:A repair function score
1,L423Y,-0.0686
2,A147Q,0.00492
3,G123Q,0.213
4,L131M,0.0751
5,C269P,-1.04
6,L83Q,-0.947
7,V500F,-0.0131
8,E141S,-0.0511
9,D243T,-0.727
10,I421S,-0.59
11,E141I,-0.599
12,R60E,-0.127
13,Y151C,-0.944
14,R446V,-0.116
15,L109E,-1.07
16,V47F,0.0442
17,E413F,0.0141
18,L313W,-0.257
19,R213K,-1
20,C269W,-1.4
21,T176K,-0.0846
22,G434R,-0.0648
23,P383R,0.0404
24,H407F,-0.245

row,Variant,8OG:A repair function score
1,L315V,-0.0921
2,A177P,-0.0959
3,A371E,-0.577
4,F376E,-1.28
5,K80S,-0.227
6,P383S,-0.0364
7,Q233C,-0.188
8,Q271Y,-0.0212
9,M462Y,-0.369
10,V53F,-0.00754
11,C477Y,-0.016
12,L169G,-0.273
13,M108P,-1.2
14,V500Y,-0.00833
15,V206Q,-0.927
16,W85P,-1.05
17,P383H,0.0207
18,V328Y,-0.134
19,R398M,0.0969
20,V214K,-0.957
21,P273Q,-0.798
22,E178V,-0.12
23,V214I,-0.231
